Assay results reported in patent US6773704B1, “Methods of treating vascular disease associated with cystatin C deficiency” (The Brigham and Women's Hospital, Inc., priority 1999, dated 2004).
Entries after “also recorded” stand apart in the source; their conditions may differ.

What was measured:
Format in all cases: cell-based, human
[1] = tested on: IFN-γ-stimulated smooth muscle cells elastase activity; assay: Elastase assay: smooth muscle cells co-cultured with insoluble [3H]-elastin
Source text: FIG. 2 is a bar graph showing that smooth muscle cells elastase activity is inhibited by recombinant cystatin C. Interferon-γ stimulated smooth muscle cells were co-cultured in serum-free medium with insoluble elastin in the presence of increasing concentrations of cystatin C as indicated in the panel. After 72 hrs, media were collected and soluble radioactivity measured as an index of elastin degradation.
FIG. 3 is a graph showing that TGF-β1 blocks smooth muscle cells elastase activity. Interferon-stimulated smooth muscle cells were co-cultured with elastin as above in the presence of increasing amounts of TGF-β1 and elastin degradation quantified after 72 hrs.
Prior studies documenting the capacity of macrophages to use cysteine proteases to degrade elastin found macrophage elastolytic activity to be insensitive to the presence of pericellular serum protease inhibitors (Reedy et al., 92 Porch. Natl. Acad. Sci. 3849-853 (1995); Chapman et al., 74 J. Clin. Invest. 1693-700 (1984)). Given the marked reduction of cystatin C in atherosclerotic and aneurysmal lesions and the clinical correlation in EXAMPLES 1-3, the influence of cystatin C on the elastolytic activity of cultured vascular smooth muscle cells was examined. Vascular smooth muscle cells were stimulated with IFN-γ (500 units/ml) for 24 hours to augment cathepsin S-dependent elastase activity (Sukhova et al., 102 J. Clin. Invest. 576-83 (1998)). In co-cultures with insoluble elastin, the addition of as little as 10 ng/ml of recombinant cystatin C inhibits elastin degradation (FIG. 2). Higher concentrations of cystatin C block >75% of the IFNγ-induced activity, confirming that smooth muscle cells elastase activity depends largely on elastolytic cysteine proteases.
The elastase assay was performed as follows: Smooth muscle cells were cultured on 24-well plates in 10% FBS DMEM until 100% confluence (5×10^5 cells/well). […] The digested elastin radioactivity was counted using 200 μl of medium and the data presented as μg elastin degraded per 10^6 cells in 24 hours.

[2] = tested on: cathepsin S and cystatin C mRNA in smooth muscle cells; assay: Northern blot analysis of smooth muscle cell RNA
Method: Total RNAs were isolated from control and IFN-γ-stimulated smooth muscle cells for Northern blot analysis. Northern blot analysis was performed as follows: After INF-γ and TGF-β1 treatments, 1.5×10^7 smooth muscle cells were lysed in 5 ml of guanidium. isothiocyanate (GTC) lysis buffer for RNA preparation as described (Sukhova et al., 102 J. Clin. Invest. 576-83 (1998)). Twenty micrograms of total RNA from smooth muscle cells were separated on 1.2% agarose gel and blotted on Zeta-Probe GT blotting membrane (Bio-Rad Laboratories, Inc.). A human cystatin C probe was generated by polymerase chain reaction using cystatin C cDNA. The 500 bp cystatin C cDNA fragment and cathepsin S cDNA probe (Sukhova et al., 102 J. Clin. Invest 576-83 (1998)) were labeled with [^32P]-dCTP and purified with NENSORB 20 column (NEN Life Science Products, Inc.) before hybridizing as previously described (Sukhova et al., 102 J. Clin. Invest. 576-83 (1998)).

[3] = tested on: cathepsin S and cystatin C protein/secretion by smooth muscle cells; assay: Immunoblot analysis of smooth muscle cell lysates and culture medium; details: for cystatin C secretion (level of secreted cystatin C): cultured vascular smooth muscle cells, culture medium
Method: Human sapheneous vein smooth muscle cells were cultured in Swell plates in Dulbecco's Modification of Eagle's Medium (DMEM) containing 10% fetal bovine serum (FBS) until confluent. […] Culture medium was then collected and centrifuged at 16000×g for 10 min. Proteins were precipitated with 20% trichloroacetic acid on ice for 30 min. followed by repeat centrifugation. The protein pellet was briefly washed with 100% ethanol and resuspended in electrophoresis sample buffer smooth muscle cells were lysed directly into sample buffer after two washes with 1×PBS. Both cell lysates and proteins from culture medium were separated on SDS-PAGE for immunoblot analysis with antibodies against human cathepsin S and cystatin C as described above. All Western blots were developed with Western Blot Chemiluminescence Reagent (NEN Life Science Products, Inc., Boston, Mass., USA).

[4] = smooth muscle cells, TGF-β1 5 ng/ml
[5] = smooth muscle cells stimulated with IFN-γ (500 units/ml)

Molecule	concentration that almost completely blocks elastase activity ([1]; IFN-γ-stimulated smooth muscle cells, elastin degradation after 72 hrs) [ng/mL]	level of cathepsin S mRNA [2, 4]	level of cystatin C mRNA [2, 4]	cystatin C secretion (level of secreted cystatin C) [3]	time after exposure at which cystatin C biosynthesis increases ([3]; smooth muscle cells exposed to TGF-β1)	level of cathepsin S protein [3, 4]	cathepsin S mRNA [2, 5]	secretion of active cathepsin S [3, 5]	concentration that inhibits elastin degradation (elastolytic activity) ([1]; IFN-γ (500 units/ml) stimulated vascular smooth muscle cells co-cultured with insoluble elastin, 72 hrs) [ng/mL]	block of IFNγ-induced elastase activity ([1]; higher concentrations of cystatin C (tested 0-500 ng/ml), IFN-γ-stimulated smooth muscle cells) [%]
TGF-β1: transforming growth factor-β1, native or recombinant cytokine (SEQ ID NO:2); induces cystatin C secretion	≤ 1	does not change	does not change	markedly increases; also recorded: stimulates; also recorded: potent inducer	one	does not change				
IFN-γ: pro-inflammatory cytokine used at 500 units/ml to stimulate smooth muscle cell cathepsin S-dependent elastase activity (protein, UniProt P01579 24-161, looked up) Interferon gamma: QDPYVKEAENLKKYFNAGHSDVADNGTLFLGILKNWKEESDRKIMQSQIVSFYFKLFKNFKDDQSIQKSVETIKEDMNVKFFNSNKKKRDDFEKLTNYSVTDLNVQRKAIHELIQVMAELSPAAKTGKRKRSQMLFRG				no effect			induces	induces		
recombinant cystatin C: 13 kDa extracellular inhibitor of cysteine proteases, human sequence SEQ ID NO:1; native or recombinant (protein, UniProt P01034 27-146, looked up) Cystatin-C: SSPGKPPRLVGGPMDASVEEEGVRRALDFAVGEYNKASNDMYHSRALQVVRARKQIVAGVNYFLDVELGRTTCTKTQPNLDNCPFHDQPHLKRKAFCSFQIYAVPWQGTMTLSKSTCQDA									≤ 10	> 75
